How the values were obtained:
[1] = target: ASC^CARD (self-interaction; state of second copy not shown); experiment: M2H (mammalian two-hybrid, luciferase); settings: HEK293T cells; luciferase normalized to Renilla; parent: est. 4.2; read off a plot
NLRP1^CARD (human) = NLRP1^CARD (human) (UniProt Q9C000); experiment: SEC-MALS; Superdex 200 10/30, 500 mM NaCl, 20 mM CHES-HCl pH 9.0, 500 uL at 0.5 mg/mL, 0.5 mL/min; monomer to dimer
MBP-ASC^CARD (human) = MBP-ASC^CARD (human) (UniProt Q9ULZ3); experiment: SEC; His-tagged MBP-ASC^CARD incubated with a threefold concentration of untagged NLRP1^CARD for 4 h, first purified by Ni-affinity chromatography, then Superdex gel filtration; complex in the void (~9 mL); also run at 0.15, 0.5 and 1.0 M NaCl (complex decreased with salt); ratio from gray scales of the PAGE gel
Chain of MBP-ASC^CARD (human) (Q9ULZ3 95-195): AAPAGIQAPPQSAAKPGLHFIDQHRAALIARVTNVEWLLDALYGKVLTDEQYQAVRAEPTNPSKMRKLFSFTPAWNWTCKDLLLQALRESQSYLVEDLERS

Row | response (fold of negative control) [1] | stoichiometry N (NLRP1^CARD (human)) | stoichiometry N (NLRP1^CARD : ASC^CARD) (MBP-ASC^CARD (human)) | Substance
1 | 1.4 | – | – | ASC^CARD (M2H fusion) (from UniProt Q9ULZ3-1) D134K
2 | 1.2 | – | – | ASC^CARD (M2H fusion) (from UniProt Q9ULZ3-1) D143A; E144A
3 | 1.2 | – | – | ASC^CARD (M2H fusion) (from UniProt Q9ULZ3-1) N128A; E130R
4 | 1.3 | – | – | ASC^CARD (M2H fusion) (from UniProt Q9ULZ3-1) R119D
5 | 1.2 | – | – | ASC^CARD (M2H fusion) (from UniProt Q9ULZ3-1) R125A; T127A
6 | 1.2 | – | – | ASC^CARD (M2H fusion) (from UniProt Q9ULZ3-1) R160E
7 | 1.2 | – | – | ASC^CARD (M2H fusion) (from UniProt Q9ULZ3-1) W169G; N170A
8 | – | 2 | 0.5 | NLRP1^CARD (from UniProt Q9C000-1 1397-1462) (domain or fragment)

Source: article PMC7801473 (2021)
